# Laboratory results published in patent US20250262297A1, “ALLERGY ANTIGEN AND EPITOPE THEREOF” (HOYU CO., LTD., priority 2017, published 2025).
# B1: chaperonin CPN60-2, mitochondrial (protein)
# chain: MYRFATSLASKARIARSSTQQIGSRVTWNRNYAAKDIKFGVEARALMLKGVEELADAVKVTMGPKGRNVVIEQSFGAPKVTKDGVTVAKSIEFKDKVKNIGASLVKQVANATNDVAGDGTTCATILTKAIFTEGCKSVAAGMNAMDLRRGINMAVDAVVTNLKSRARMISTSEEIAQVGTISANGEREIGELIAKAMEKVGKEGVITISDGKTLYNELEVVEGMKLDRGYISPYFITNQKNQKCELEDPLIIIHEKKISSINAIVKVLELALKRQRSLLIVAEDVESDALATLILNKLRAGIKVCAIKAPGFGENRKSGLQDLAVLTGGQLITEELGLNLEKVDLDLFGSCKKITISKDDTVILDGAGDKKAIEERCEQIRSAIENSTSDYDKEKLQERLAKLSGGVAVLKIGGASEAEVGEKKDRVTDALNATKAAVEEGIVPGGGVALLYASSELDKLQTANFDQKIGVQIIQNALKTPVHTIASNAGVEGAVVVGKLLEQNDPDLGYDAAKGEYVDMVKTGIIDPLKVIRTALVDAASVSSLMTTTEAVVSELPKDDKDVPAMGGGMGGMDY
# modifications: Glycine max
# notes: spot also identified as chaperonin CPN60-2, mitochondrial-like isoform X1
# Tested on: IgE antibodies from soybean-allergic patients
# Assay: Immunoblotting of two-dimensional electrophoresis pattern of soybean proteins with patient serum
# Assay type: binding, human
# Conditions: spot in 2D electrophoresis gel of soybean proteins; patient serum compared with healthy subject serum
# Outline: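 Soybean proteins were separated by 2-D electrophoresis, transferred to PVDF and blocked in 5% skim milk/PBST. Blots were probed with 3% serum from soybean-allergic patients or healthy subjects for 1 h at room temperature, then anti-human IgE-HRP (1:2500). Chemiluminescent substrate was used, with fluorescent image scanning.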
molecule,measurement,value
B1,specific binding to IgE antibodies from soybean-allergic patients,specific binding
